The assay deals with T1, his 태그가 부착된 재조합 인간 CD38 (recombinant human CD38 extracellular domain, His-tagged) (human, UniProt P28907 43-300, biotinylated in part of the ForteBio assays (EZ-Link sulfo-NHS biotinylation)).
T1 construct: Bought from Sino Biological; also called rhCD38; rhCD38-his; not shown: histidine tag
T1 sequence: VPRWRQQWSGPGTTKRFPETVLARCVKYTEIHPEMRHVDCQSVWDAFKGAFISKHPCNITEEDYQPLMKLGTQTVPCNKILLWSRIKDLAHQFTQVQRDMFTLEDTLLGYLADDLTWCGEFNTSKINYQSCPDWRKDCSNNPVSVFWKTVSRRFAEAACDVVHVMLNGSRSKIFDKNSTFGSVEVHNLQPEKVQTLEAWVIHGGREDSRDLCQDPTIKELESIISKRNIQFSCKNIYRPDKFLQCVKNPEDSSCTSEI
Briefly: affinity on recombinant human CD38 extracellular domain (Octet/Biacore); order of magnitude told in text.

B1: aCD38-b-329 (antibody, human IgG1, V domains shown)
VH: QLQLQESGPGLVKPSETLSLTCTVSGGSISSSDYYWGWIRQPPGKGLEWIGSIYYSGSTYYNPSLKSRVTISVDTSKNQFSLKLSSVTAADTAVYYCARGQYSSGWYAYPFDMWGQGTMVTVSS
VL: EIVLTQSPGTLSLSPGERATLSCRASQSVRSSYLAWYQQKPGQAPRLLIYGASSRATGIPDRFSGSGSGTDFTLTISRLEPEDFAVYYCQQDGAVFTFGGGTKVEIK
notes: Human IgG1 with kappa constant region (P01857, P01834)
Take B1: the Kd was roughly 1 nM.
